Source: patent US20260139026A1 (Memorial Sloan Kettering, published 2026)

B1: 1022T8 TCR (TCR, V domains shown)
V domain 1: GDSVTQMEGPVTLSEEAFLTINCTYTATGYPSLFWYVQYPGEGLQLLLKATKADDKGSNKGFEATYRKETTSFHLEKGSVQVSDSAVYFCALTVGGSYIPTFGRGTSLIVHP
V domain 2: DTEVTQTPKHLVMGMTNKKSLKCEQHMGHRAMYWYKQKAKKPPELMFVYSYEKLSINESVPSRFSPECPNSSLLNLHLHALQPEDSALYLCASSQGGQGWRETQYFGPGTRLLVLE

What was measured:
recombinant HLA-A*03:01 = target: T1, recombinant HLA-A*03:01 (human); assay: differential scanning fluorimetry of peptide/HLA-A*03:01, two technical replicates
T1 construct: MHC class I molecule used in differential scanning fluorimetry and crystallography. 'Recombinant' is printed only for the crystal structures; also called HLA-A*03:01 molecule
Source text: Experiments included two technical replicates for each group. […] It measured the change in fluorescent signal of a dye that binds preferentially to hydrophobic resides that are exposed as an unstable protein unfolds.

[1] = target: P2 peptide … pulsed on HLA-A*03:01 cells (human, UniProt A*03:01); assay: cell-based or functional assay
[2] = target: P3 peptide … pulsed on HLA-A*03:01 cells (human, UniProt A*03:01); assay: cell-based or functional assay
[3] = target: P6 peptide … pulsed on HLA-A*03:01 cells (human, UniProt A*03:01); assay: cell-based or functional assay
[4] = target: P4 peptide … pulsed on HLA-A*03:01 cells (human, UniProt A*03:01); assay: cell-based or functional assay
[5] = target: P9 peptide … pulsed on HLA-A*03:01 cells (human, UniProt A*03:01); assay: cell-based or functional assay
[6] = target: P7 peptide … pulsed on HLA-A*03:01 cells (human, UniProt A*03:01); assay: cell-based or functional assay
[7] = target: P8 peptide … pulsed on HLA-A*03:01 cells (human, UniProt A*03:01); assay: cell-based or functional assay
[8] = target: P5 peptide … pulsed on HLA-A*03:01 cells (human, UniProt A*03:01); assay: cell-based or functional assay

Binder | melting temperature (recombinant HLA-A*03:01) [degrees] | loss in function against the unmodified mutated 9-mer [1] [% loss in function] | loss in function against the unmodified mutated 9-mer [2] [% loss in function] | loss in function against the unmodified mutated 9-mer [3] [% loss in function] | loss in function against the unmodified mutated 9-mer [4] [% loss in function] | loss in function against the unmodified mutated 9-mer [5] [% loss in function] | loss in function against the unmodified mutated 9-mer [6] [% loss in function] | loss in function against the unmodified mutated 9-mer [7] [% loss in function] | loss in function against the unmodified mutated 9-mer [8] [% loss in function]
AHHGGWTTK (also called WT peptide) [wildtype PIK3CA minimal peptide AHHGGWTTK] | 36 |  |  |  |  |  |  |  | 
B1 |  | > 50 | > 50 | > 50 | > 50 | > 50 | > 50 | > 50 | > 50
